To fix the notation:
B1: 40511p1.1.A1 scFv-Fc (scFv, V domains shown)
VH: DVQLVESGGGVVRPGESLRLSCAASGFTFSNYAMNWVRQAPGEGLEWVSRINYKGYNITYYADSVKGRFTISRDNSKNTLYLQMNSLRAEDTAVYYCAKSGSNSNNFFDYWGLGTLVTVSS
VL: EIVLTQSPGTLSVSPGERATLSCRASQSVNSKLAWYQQRPGQAPRLLIYDASSRATGIPDRFSGSGSGTDFTLTISRLEPEDFAVYYCQQYKNWPPLTFGGGTKVEIK
notes: Tested as scFv-Fc supernatant
B2: 40579p1.B8 scFv-Fc (scFv, V domains shown)
VH: EVQLLESGGGLVQPGGSLRLSCAASGFTFSDYYMSWVRQAPGKGLEWVSGISMSSTIYYADSVKGRFTISRDNSKNTLYLQMNSLRAEDTAVYYCARHRSPYQYRSMDVWGQGTTVTVSS
VL: B1 VL with V13L, R39K, A43P, R45S, S53R, D70E, R77S, E79Q, P80S, K92N
B3: 40511p1.2.A12 scFv-Fc (scFv, V domains shown)
VH: DVQLVESGGGVVRPGESLRLSCAASGFTFSSYAESWVRQAPGEGLEWVSIISGSGGNTFYADSVKGRFTISRDNSKNTLYLQMNSLRAEDTAVYYCARFAYGFFDYWGLGTLVTVSS
VL: B1 VL with S28T, N30G, R39K, A43P, R45S, S53T, R77S, E79Q, P80S, K92R
notes: Tested as scFv-Fc supernatant; also called 40511p1.2.Al2
B4: 40511p1.1.H5 scFv-Fc (scFv, V domains shown)
VH: B1 VH
VL: EIVLTQSPGTLSLSPGERATLSCRASQSIRSDLAWYQQKPGQAPRLLIYGAASRATGIPARFSGSGSGTEFTLTISSLQSGDFAVYYCQQYNSWPPLTFGGGTKVEIK
notes: Tested as scFv-Fc supernatant
B5: 40511p1.1.H10 scFv-Fc (scFv, V domains shown)
VH: B1 VH
VL: EIVLTQSPGNLSLSPGERATLSCRASQSVGSQLGWYQQKPGQAPRLLIYGASTRATGIPDRFSGSGSGTEFALTISSLQSEDFAVYYCQQYYDWPPLTFGGGTKVEIK
B6: 40511p1.2.G10 scFv-Fc (scFv, V domains shown)
VH: B1 VH
VL: B5 VL with N10T, S28T, Q32K, G34A, G57D, A72T, Y92I, D93N, T98S
notes: Tested as scFv-Fc supernatant
B7: 40511p1.1.G1 scFv-Fc (scFv, V domains shown)
VH: B3 VH
VL: EIVLTQSPGTLSVSPGEGATLSCRASQTVGSKLAWYQQKPGQPPSLLIYDASTRATGIPDRFSGSGSGTDFTLTISSLQSEDFAVYYCQQYRNWPPLTFGGGTKVEIK
notes: Tested as scFv-Fc supernatant
B8: 40511p1.2.A4 scFv-Fc (scFv, V domains shown)
VH: B3 VH
VL: B7 VL with G18R, P43A, S45R, G57D
notes: Tested as scFv-Fc supernatant
B9: 40511p1.1.C3 scFv-Fc (scFv, V domains shown)
VH: DVQLVESGGGVVRPGGSLRLSCAASGFTFRIYGMTWVRQAPGEGLEWVSTISGSGNSTYYADSVKGRFTISRDNSKNTLYLQMNSLRAEDTAVYYCAKTWNNYRFFDYWGLGTLVTVSS
VL: EIVLTQSPGTLSLSPGERATLSCRASQPINSSYLAWYQQKPGQAPRLLIYAASSRATDIPDRFSGSGSGTDFTLTISSLQSEDFAVYYCQQYYDWPQFTFGGGTKVEIK
B10: 40511p1.1.D8 scFv-Fc (scFv, V domains shown)
VH: DVQLVESGGGVVRPGESLRLSCAASGFTFSSYAMSWVRQAPGEGLEWVSSISGSGGSTLYADSVKGRFTISRDSSNNSLYLQMNSLRAEDTAVYYCAKARNNFFDYWGLGTLVTVSS
VL: EIVLTQSPGTLTLSPGERATLSCRASRSILTSLAWYQQRPGQAPRLLIYGANSRATGIPDRFSGSGSGTEFTLTISSLQSEDFAVYYCQQYYDWLTITFGGGTKVEIK
B11: 40511p1.2.B5 scFv-Fc (scFv, V domains shown)
VH: B10 VH
VL: B10 VL with A43T
B12: 40579p1.C2 scFv-Fc (scFv, V domains shown)
VH: EVQLLESGGDLVQPGGSLRLSCAASGFNFSSYWMSWVRQAPGKGLEWVSGISISYGGNAYYADSVKGRFTVSRDNSKNTLYLQMNSLRAEDTAVYYCGRDRSPYQYRSMDVWGQGTTVTVSS
VL: EIVLTQSPATLSVSPGERATFSCRASQTIGNKLAWYQQKPGQAPRLLIFSASTRATDIPDRFSGSGSGTDFTLTISSLQSEDFAVYYCQQYNNWPPLTFGGGTKVEIK
notes: Tested as scFv-Fc supernatant
B13: 40579p1.D8 scFv-Fc (scFv, V domains shown)
VH: B12 VH with D10G, N28T, S31D, W33Y, G50S, N58T, A59T, V71I, G98A, Y106C
VL: B4 VL with G50N, A51T, A52V, S53T, I58V, A60D, G81E
notes: Tested as scFv-Fc supernatant
B14: 40579p1.F7 scFv-Fc (scFv, V domains shown)
VH: B12 VH with D10G, N28T, S31D, W33Y
VL: EIVLTQSPGTLSLSPGERATLTCRASQSVGDFLAWYQQKPGQAPRLLIYGASTRAAGIPARFRGSGSGTDFTLTISSLQSEDFAVYYCQQYKNWPPLTFGGGTKVEIK
notes: Tested as scFv-Fc supernatant
B15: 40511p1.2.A8 scFv-Fc (scFv, V domains shown)
VH: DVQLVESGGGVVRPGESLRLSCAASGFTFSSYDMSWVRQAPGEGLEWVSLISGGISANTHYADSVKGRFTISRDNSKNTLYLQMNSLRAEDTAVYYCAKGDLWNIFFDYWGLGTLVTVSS
VL: EIVLTQSPATLSVSPGERATFSCRASQNVRSYLAWYQQKPGQAPRLLIFNTVTRATGIPDRFSGSGSGTDFTLTISSLEPEDFAVYYCQQYYDWPPLTFGGGTKVEIK
B16: 40511p1.1.D6 scFv-Fc (scFv, V domains shown)
VH: DVQLVESGGGVVRPGESLTLSCAASGFTINSYAVSWVRQAPGEGLEWVSGISGSGVRYYADSVKGRFTISRDNSNNTLYLQMNSLRAEDTAVYYCARSNKVTWNNFFDYWGLGTLVTVSS
VL: EVVLTQSPGTLTLSPGERATLSCRASRSILTSLAWYQQKPGQAPRLLIYNTVTRATGIPARFSGSGSGTEFTLTINSLQSEDFAVYYCQQYYDWPPLTFGGGTKVEIK
notes: Tested as scFv-Fc supernatant
B17: 40511p1.1.G3 scFv-Fc (scFv, V domains shown)
VH: B16 VH with N73D
VL: B16 VL
notes: Tested as scFv-Fc supernatant
B18: 40511p1.1.C4 scFv-Fc (scFv, V domains shown)
VH: DVQLVESGGGVVRPGESLRLSCAASGFTFSSYAMSWVRQAPGEGLEWVSRISGSGNSTDYAESVKGRFTISRDSSKNTLYLQMNSLRAEDTAVYYCAKHSTVSFFDYWGLGTLVTVSS
VL: EIVLTQSPGTLSLSPGERATLSCRASQSISSRYLAWYQQKPGQAPRLLIYGASRRATGIPARFSGSGSGTEFTLTISSLQSEDFAVYYCQQYGHWPPLTFGGGTKVEIK
B19: 40511p1.1.D3 scFv-Fc (scFv, V domains shown)
VH: DVQLVESGGGVVRPGGSLRLSCAASGFTFRSYGMNWVRQAPGEGLEWVSRMSSGGGAYYADSVKGRFTISRDNSKNTLYLQMNSLRAEDTAVYYCARNSRDFFFDQWGLGTLVTVSS
VL: B4 VL with I2T, I29V, R30N, D32K, A52S, S80T, G81E, N92S, S93D
B20: 40579p1.E5 scFv-Fc (scFv, V domains shown)
VH: EVQLLESGGGLVQPGGSLRLSCAASGFTFSDDWMTWVRQAPGKGLEWVSAINWNGNSTHYADSVKGRFTVSRDNSKNTLYLQMNSLRAEDTAVYYCAKSRTTYYSSMDVWGQGTTVTVSS
VL: EIVLTQSPGTLSLSPGERATLSCRASQTVGSYLAWYQQKPGQAPRLLIYGASSRATGIPARFSGSGSGTDFTLTISSLQSEDFAVYYCQHYYDWPPYSFGGGTKVEIK
B21: 40579p1.G1 scFv-Fc (scFv, V domains shown)
VH: B12 VH with D10G
VL: B4 VL with A52S, G81E, S93N
notes: Tested as scFv-Fc supernatant

Residue numbers refer to the chain shown, from its start.

In this assay the target is T1, his-tagged B7-H3 (UniProt Q5ZPR3-2 29-245, limits assumed).
T1 construct: also called CD276; not shown: His tag
T1 sequence (looked up): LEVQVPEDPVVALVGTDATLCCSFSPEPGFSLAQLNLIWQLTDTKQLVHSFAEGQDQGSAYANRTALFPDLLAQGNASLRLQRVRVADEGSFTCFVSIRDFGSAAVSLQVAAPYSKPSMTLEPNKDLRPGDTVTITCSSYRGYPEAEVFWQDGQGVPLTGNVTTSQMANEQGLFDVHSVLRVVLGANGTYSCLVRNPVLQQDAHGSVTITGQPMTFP
In words: SPR, Carterra LSA; binder captured by anti-human Fc, his-tagged B7-H3 injected. The procedure: Binding affinities of anti-B7-H3 antibodies to B7-H3 were measured by Surface Plasmon Resonance (SPR) on a Carterra LSA instrument. Goat anti-human Fc antibody was amine coupled to a HC30M chip. ScFv-Fc supernatants were diluted 30-fold with HBSTE and were captured by the anti-human Fc coupled HC30M chip. A 1:2 dilution series of his-tagged B7-H3, starting at 400 nM, was injected onto the chip for binding. Data was analyzed using the Carterra TM Kinetics software.
Background: SPR reads the build-up and loss of mass on a sensor chip optically.
In the case of B1, the Kd – broadly, the free concentration of one partner at which half of the binding sites on the other are occupied at equilibrium, for simple one-to-one binding – was determined as 463 nM; the koff (as a rule, the rate constant with which the complex falls apart) came out at 0.04 s⁻¹; the kon (usually the second-order rate constant of association) came to 93000 M⁻¹ s⁻¹.
As for B2, the Kd came to 3.1 nM and the kon is 622000 M⁻¹ s⁻¹.
Molecule B3 displayed an equilibrium dissociation constant (Kd) of 25.1 nM, an off-rate constant (koff) of 0.03 s⁻¹ and an association rate constant (kon) of 1.32e+06 M⁻¹ s⁻¹.
B4 registered a Kd of 123 nM and an association rate constant (kon) of 10300 M⁻¹ s⁻¹.
On the same counts, the results for B5 are 1.41 nM and 752000 M⁻¹ s⁻¹.
On to B6, for which the dissociation constant (Kd) turned out to be 15 nM, the koff worked out at 0.01 s⁻¹ and the on-rate constant (kon) was 645000 M⁻¹ s⁻¹.
Molecule B7 came in with a Kd of 54.4 nM, a koff of 0.02 s⁻¹ and a kon of 458000 M⁻¹ s⁻¹.
On the same counts, the results for B8 are 52 nM, 0.04 s⁻¹ and 768000 M⁻¹ s⁻¹.
On the same counts, the results for B9 are 47.7 nM, 0.02 s⁻¹ and 406000 M⁻¹ s⁻¹.
In turn, B10 registered a Kd of 71.8 nM, a koff of 0.02 s⁻¹ and a kon of 340000 M⁻¹ s⁻¹.
Regarding B11, the affinity, expressed as Kd, was 61.2 nM; the koff was found to be 0.05 s⁻¹; the kon stood at 795000 M⁻¹ s⁻¹.
B12 showed a dissociation constant Kd of 9.11 nM and a kon of 452000 M⁻¹ s⁻¹.
In the case of B13, the Kd came to 44.2 nM and the association rate constant (kon) amounted to 25700 M⁻¹ s⁻¹.
B14 returned a Kd of 212 nM, an off-rate constant (koff) of 0.02 s⁻¹ and a kon of 108000 M⁻¹ s⁻¹.
For the molecule B15, the dissociation constant Kd worked out at 0.639 nM and the kon was 364000 M⁻¹ s⁻¹.
On the same counts, the results for B16 are 0.325 nM and 669000 M⁻¹ s⁻¹.
On the same counts, the results for B17 are 0.759 nM and 494000 M⁻¹ s⁻¹.
Regarding B18, binding was characterised by a dissociation constant (Kd) of 17.1 nM and the kon came out at 76900 M⁻¹ s⁻¹.
For the molecule B19, binding was characterised by a dissociation constant (Kd) of 321 nM, the off-rate constant (koff) stood at 0.04 s⁻¹ and the kon was 109000 M⁻¹ s⁻¹.
For the molecule B20, the Kd was determined as 2.51 nM and the kon was 493000 M⁻¹ s⁻¹.
Consider B21, for which the dissociation constant Kd came out at 6.75 nM and the kon came to 260000 M⁻¹ s⁻¹.

Values taken from patent publication US20260008852A1 (CRYSTAL BIOSCIENCE, published 2026).
